Measured values reported in patent US20220177584A1 (Janssen / Centocor, published 2022).

Target: cynomolgus monkey GPRC5D (cynomolgus monkey)
Assay: cell-based or functional assay

B1: talquetamab (bispecific antibody, human IgG4 S228P, lambda, F234A L235A)
heavy 1: not shown
light 1: DIQMTQSPSSLSASVGDRVTITCKASQNVATHVGWYQQKPGKAPKRLIYSASYRYSGVPSRFSGSGSGTEFTLTISNLQPEDFATYYCQQYNRYPYTFGQGTKLEIKKAAPSVTLFPPSSEELQANKATLVCLISDFYPGAVTVAWKGDSSPVKAGVETTTPSKQSNNKYAASSYLSLTPEQWKSHRSYSCQVTHEGSTVEKTVAPTECS
heavy 2: EVQLVESGGGLVQPGGSLRLSCAASGFTFNTYAMNWVRQAPGKGLEWVARIRSKYNNYATYYAASVKGRFTISRDDSKNSLYLQMNSLKTEDTAVYYCARHGNFGNSYVSWFAYWGQGTLVTVSSASTKGPSVFPLAPCSRSTSESTAALGCLVKDYFPEPVTVSWNSGALTSGVHTFPAVLQSSGLYSLSSVVTVPSSSLGTKTYTCNVDHKPSNTKVDKRVESKYGPPCPPCPAPEAAGGPSVFLFPPKPKDTLMISRTPEVTCVVVDVSQEDPEVQFNWYVDGVEVHNAKTKPREEQFNSTYRVVSVLTVLHQDWLNGKEYKCKVSNKGLPSSIEKTISKAKGQPREPQVYTLPPSQEEMTKNQVSLTCLVKGFYPSDIAVEWESNGQPENNYKTTPPVLDSDGSFLLYSKLTVDKSRWQEGNVFSCSVMHEALHNHYTQKSLSLSLGK
light 2: QTVVTQEPSLTVSPGGTVTLTCRSSTGAVTTSNYANWVQQKPGQAPRGLIGGTNKRAPGTPARFSGSLLGGKAALTLSGVQPEDEAEYYCALWYSNLWVFGGGTKLTVLGQPKAAPSVTLFPPSSEELQANKATLVCLISDFYPGAVTVAWKADSSPVKAGVETTTPSKQSNNKYAASSYLSLTPEQWKSHRSYSCQVTHEGSTVEKTVAPTECS
In the case of B1, the “in vivo pharmacological activity, cynomolgus monkey against human” value is reported as roughly 100 fold lower.
